Laboratory results taken from patent publication US20250276075A1, “METHODS OF TREATING AXL-EXPRESSING CANCERS WITH ANTI-AXL ANTIBODIES, ANTIBODY FRAGMENTS AND THEIR IMMUNOCONJUGATES” (BIOATLA, INC., priority 2020, published 2025).

Assay: Phase 1 clinical study of BA3011: safety (adverse events, DLT, MTD, RP2D)
Type: in vivo, human
Excerpt: MTD evaluation will be based on the DLT-evaluable Population. The DLT-evaluable Population includes all patients enrolled in Phase 1 dose escalation who receive at least 1 full assigned dose of BA3011 and complete the safety follow-up through the DLT-evaluation period (defined as the time period from the first dose of BA3011 through 21 days post Dose 1) or experience any DLT during the DLT-evaluation period. Non-DLT-evaluable patients will be replaced. The safety evaluation will be based on the As-Treated Population. Adverse events (AEs) will be coded by Medical Dictionary for Regulatory Activities (MedDRA) and graded according to the NCI CTCAE v4.03, and the type, incidence, severity, and relationship to each IP will be summarized. If any associations of interest between AEs and baseline characteristics are observed, additional stratified results may be presented. All treatment-emergent AEs will be summarized by MedDRA system organ class and preferred term. Laboratory abnormalities with toxicity grades according to the NCI CTCAE will be summarized.
A DLT is defined as meeting 1 of the following criteria during the 21-day DLT evaluation period or a treatment-related toxicity of any grade requiring dose delay of 1 week or more between the first and second cycles: • Non-hematologic Toxicity • For non-hematologic toxicities, DLT will be defined as any National Cancer Institute (NCI) Common Terminology Criteria for Adverse Events (CTCAE) v4.03 (published 14 Jun. 2010) Grade 3 or greater toxicity at least possibly related to treatment, except for: • Grade 3 fatigue. • Grade 3 nausea and vomiting lasting less than 24 hours. • Grade 3 non-hematologic laboratory abnormalities that are asymptomatic and resolve to Grade 1 or baseline (if the patient entered the study with existing toxicity) within 14 days. • Grade 3 or 4 allergic or hypersensitivity reaction at first occurrence in the absence of prophylactic steroid that resolves in less than 6 hours with appropriate clinical intervention
• DLT for hematologic toxicity, using NCI CTCAE v4.03, will be defined as: • Grade 4 neutropenia lasting greater than 7 days. • Grade 3 or 4 febrile neutropenia. • Grade 4 platelet count (<25,000/mm3) at any time.
Study BA3011-001 was an ongoing, multi-center, open-label, Phase 1/2 first-in-human trial of BA3011.
In Phase 1 (NCT03425279), BA3011 was administered once (Q3W) or twice (2Q3W) every 3 weeks via intravenous (IV) infusion.

[1] = All TEAEs, All Grades, sarcoma patients, Phase 1
[2] = All TEAEs, Grade 3, sarcoma patients, Phase 1
[3] = All TEAEs, Grade 4, sarcoma patients, Phase 1
[4] = Related TEAEs, All Grades, sarcoma patients, Phase 1
[5] = Related TEAEs, Grade 3, sarcoma patients, Phase 1
[6] = Related TEAEs, Grade 4, sarcoma patients, Phase 1
[7] = Total, 26 sarcoma patients, Phase 1

B1: Mecbotamab vedotin (conjugate, chains of the INN, looked up)
VH: EVQLVQSGAEVKKPGATVKISCKVSGYSFWGATMNWIRQPPGKGLEWIGLIKPSNGGTSYNQKFKGRVTISADKSISTAYLQWSSLKASDTAMYYCAHGHYESYEAMDYWGQGTLVTVSS
VL: DIQMTQSPSSLSASVGDRVTITCKASQDVVSAVAWYQQKPGQAPRLLIYWQDTRHTGVPSRFSGSGSGTEFTLTISSLQPDDFATYYCQEHFSPPLTFGQGTKVEIK
modifications: MC-vc-PAB-MMAE conjugate
- Stomatitis, % [1]: (3.8) %
- Vomiting, % [1]: (23.9) %
- Anemia, % [2]: (7.7) %
- Aspartate aminotransferase increased, % [2]: (3.8) %
- Blood bilirubin increased, % [2]: (3.8) %
- Constipation, % [2]: (3.8) %
- Hypokalemia, % [2]: (11.5) %
- Hyponatremia, % [2]: (7.7) %
- Lymphocyte count decreased, % [2]: (3.8) %
- Nausea, % [2]: (3.8) %
- Neutrophil count decreased, % [2]: (15.4) %
- Patients with at least one TEAE, % [2]: (57.7) %
- Peripheral neuropathy, % [2]: (3.8) %
- Stomatitis, % [2]: (3.8) %
- Vomiting, % [2]: (3.8) %
- Neutrophil count decreased, % [3]: 3.8%
- Patients with at least one TEAE, % [3]: 7.7%
- on-target toxicity to normal AXL-expressing tissue (Phase 1): No clinically meaningful on-target toxicity was observed
- rate of constipation (Phase 1): low
- dose-limiting toxicities (Phase 1, highest dose tested): limited to monomethyl auristatin E (MMAE) conjugate-associated toxicity at the highest dose tested, including reversible neutropenia
- SAE related to treatment (grade 2 hepatic encephalopathy) (Phase 1 sarcoma patients): 1 patient
- patients with grade 3 related TEAEs (Phase 1 sarcoma patients): Eleven
- patients with grade 4 neutropenia (Phase 1 sarcoma patients): 1 patient
- treatment-emergent adverse events (TEAEs) leading to death (Phase 1 sarcoma patients): no treatment-emergent adverse events (TEAEs) leading to death
- treatment-related TEAEs leading to treatment discontinuation (Phase 1 sarcoma patients): 2 (7.7%) patients
- Alanine aminotransferase increased, % [4]: (38.5) %
- Alopecia, % [4]: (23.1) %
- Anemia, % [4]: (3.8) %
- Arthralgia, % [4]: (3.8) %
- Aspartate aminotransferase increased, % [4]: (42.3) %
- Blood alkaline phosphatase increased, % [4]: (19.2) %
- Blood bilirubin increased, % [4]: (3.8) %
- Bone pain, % [4]: (3.8) %
- Constipation, % [4]: (15.4) %
- Decreased appetite, % [4]: (15.4) %
- Diarrhea, % [4]: (19.2) %
- Fatigue, % [4]: (42.3) %
- Hypokalemia, % [4]: (15.4) %
- Hyponatremia, % [4]: (3.8) %
- Lymphocyte count decreased, % [4]: (7.7) %
- Nausea, % [4]: (38.5) %
- Neutrophil count decreased, % [4]: (26.9) %
- Patients with at least one TEAE, % [4]: (84.6) %
- Peripheral neuropathy, % [4]: (15.4) %
- Stomatitis, % [4]: (3.8) %
- Vomiting, % [4]: (19.2) %
- Anemia, % [5]: (3.8) %
- Aspartate aminotransferase increased, % [5]: (3.8) %
- Blood bilirubin increased, % [5]: (3.8) %
- Hypokalemia, % [5]: (11.5) %
- Hyponatremia, % [5]: (3.8) %
- Lymphocyte count decreased, % [5]: (3.8) %
- Nausea, % [5]: (3.8) %
- Neutrophil count decreased, % [5]: (15.4) %
- Patients with at least one TEAE, % [5]: (42.3) %
- Peripheral neuropathy, % [5]: (3.8) %
- Stomatitis, % [5]: (3.8) %
- Vomiting, % [5]: (3.8) %
- Neutrophil count decreased, % [6]: 3.8%
- Patients with at least one TEAE, % [6]: 3.8%
- Any TEAE, % of patients [7]: (100.0)%
- Any TEAE, no. of patients [7]: 26
- Any related serious TEAE, % of patients [7]: (3.8%)
- Any related serious TEAE, no. of patients [7]: 1
- Any serious TEAE, % of patients [7]: (34.6%)
- Any serious TEAE, no. of patients [7]: 9
- Related TEAE leading to treatment discontinuation, no. of patients [7]: 2
- Related TEAEs with CTCAE grade 3 or 4, % of patients [7]: (46.2%)
- Related TEAEs with CTCAE grade 3 or 4, no. of patients [7]: 12
- TEAE leading to treatment discontinuation, % of patients [7]: (7.7%)
- TEAE leading to treatment discontinuation, no. of patients [7]: 2
- TEAE with CTCAE grade 3 or 4, % of patients [7]: (65.4%)
- TEAE with CTCAE grade 3 or 4, no. of patients [7]: 17
- TEAEs leading to death, no. of patients [7]: 0
- transient grade 1-2 liver enzyme elevations (seen during cycle 1 treatment): generally did not re-occur upon re-treatment
- creatinine levels (throughout treatment): generally unchanged throughout treatment
